Series [1] concerns the molecule itself. Put plainly: crystal structure; His-MBP-ApoE4M ~8 mg/ml, hanging drop vapour diffusion; four crystals in two space groups (P212121, P3121); dimeric unit of two NTDs (chains A and B) from crystal packing contacts.
Series [2] concerns the molecule itself. The experiment in a line: dynamic light scattering; ~0.2 mg/ml, room temperature, size distribution after SEC purification.

B1: ApoE4 N-terminal domain (NTD) as seen in the crystals grown from His-MBP-ApoE4M (domain or fragment, human, UniProt P02649 40-183, looked up)
chain: SGQRWELALGRFWDYLRWVQTLSEQVQEELLSSQVTQELRALMDETMKELKAYKSELEEQLTPVAEETRARLSKELQAAQARLGADMEDVRGRLVQYRGEVQAMLGQSTEELRVRLASHLRKLRKRLLRDADDLQKRLAVYQAG
notes: apolipoprotein E, isoform ApoE4 (R112/R158), human; only residues ~22-165 (NTD) were obtained in the structures; the five mutations lie outside that range; also called ApoE4 NTD; source: E. coli BL21(DE3), purified (Ni-NTA, SEC; no cleavage step)
In the case of B1, the binding result in series [1] is on record as “binds”.

B2: APOE3M-AP (domain or fragment, human, UniProt P02649 42-317, looked up)
chain: QRWELALGRFWDYLRWVQTLSEQVQEELLSSQVTQELRALMDETMKELKAYKSELEEQLTPVAEETRARLSKELQAAQARLGADMEDVCGRLVQYRGEVQAMLGQSTEELRVRLASHLRKLRKRLLRDADDLQKRLAVYQAGAREGAERGLSAIRERLGPLVEQGRVRAATVGSLAGQPLQERAQAWGERLRARMEEMGSRTRDRLDEVKEQVAEVRAKLEEQAQQIRLQAEAAQARLKSRFEPLAEDMQRQWAGQVEKVQAAEGTSAAPVPSDNH
notes: apolipoprotein E, isoform ApoE3, human, residues 1-23 (helices N1 and N2) deleted, with the five monomerizing mutations; Truncated variants were cloned into NdeI/BamHI of pET-21b; also called ApoEM-AP; aggregation-prone ApoEM; source: E. coli BL21(DE3), purified (Ni-NTA, 3C protease cleavage, SEC); not shown: His, N-terminal, cleaved; thioredoxin, N-terminal, cleaved
As to B2, the binding result in series [2] is “binds”.

B3: APOE4M-AP (domain or fragment, human, UniProt P02649 42-317, looked up)
chain: QRWELALGRFWDYLRWVQTLSEQVQEELLSSQVTQELRALMDETMKELKAYKSELEEQLTPVAEETRARLSKELQAAQARLGADMEDVRGRLVQYRGEVQAMLGQSTEELRVRLASHLRKLRKRLLRDADDLQKRLAVYQAGAREGAERGLSAIRERLGPLVEQGRVRAATVGSLAGQPLQERAQAWGERLRARMEEMGSRTRDRLDEVKEQVAEVRAKLEEQAQQIRLQAEAAQARLKSRFEPLAEDMQRQWAGQVEKVQAAEGTSAAPVPSDNH
notes: apolipoprotein E, isoform ApoE4, human, residues 1-23 (helices N1 and N2) deleted, with the five monomerizing mutations; Truncated variants were cloned into NdeI/BamHI of pET-21b; also called ApoEM-AP; aggregation-prone ApoEM; source: E. coli BL21(DE3), purified (Ni-NTA, 3C protease cleavage, SEC); not shown: His, N-terminal, cleaved; thioredoxin, N-terminal, cleaved
On to B3, for which the binding result in series [2] is “binds”.
